B1: Candida tenuis xylose reductase (CtXR) (Yamadazyma tenuis) (protein)
chain: MSASIPDIKLSSGHLMPSIGFGCWKLANATAGEQVYQAIKAGYRLFDGAEDYGNEKEVGDGVKRAIDEGLVKREEIFLTSKLWNNYHDPKNVETALNKTLADLKVDYVDLFLIHFPIAFKFVPIEEKYPPGFYCGDGNNFVYEDVPILETWKALEKLVAAGKIKSIGVSNFPGALLLDLLRGATIKPAVLQVEHHPYLQQPKLIEFAQKAGVTITAYSSFGPQSFVEMNQGRALNTPTLFAHDTIKAIAAKYNKTPAEVLLRWAAQRGIAVIPKSNLPERLVQNRSFNTFDLTKEDFEEIAKLDIGLRFNDPWDWDNIPIFV
notes: full-length enzyme; redesigned CtXR expressed in E. coli BL21 (DE3), purified by dye ligand chromatography

Columns and labels:
Experiment in all cases: initial rates of NADH-dependent reduction
Type in all cases: biochemical, Yamadazyma tenuis
CC(=O)c1ccc(Cl)cc1Cl = test system: T1, CC(=O)c1ccc(Cl)cc1Cl; settings: apparent; 300 µM NADH; max 5 mM; W23 and K24 replaced by pentapeptide FAPRE
T1 construct: full-length enzyme; redesigned CtXR expressed in E. coli BL21 (DE3), purified by dye ligand chromatography
Description: (§1) initial rates of NADH-dependent reduction on Candida tenuis xylose reductase (CtXR)

[1] = test system: T2, CCOC(=O)C(=O)c1ccc(C#N)cc1; settings: apparent; 300 µM NADH; max 10 mM; W23 and K24 replaced by pentapeptide FAPRE
T2 construct: full-length enzyme; redesigned CtXR expressed in E. coli BL21 (DE3), purified by dye ligand chromatography
Description: as §1

CC(=O)c1ccccc1Cl = test system: T3, CC(=O)c1ccccc1Cl; settings: apparent; 300 µM NADH; max 10 mM; W23 and K24 replaced by pentapeptide FAPRE
T3 construct: full-length enzyme; redesigned CtXR expressed in E. coli BL21 (DE3), purified by dye ligand chromatography
Description: as §1

[2] = test system: T4, NC(=O)C1=CN([C@@H]2O[C@H](COP(=O)(O)OP(=O)(O)OC[C@H]3O[C@@H](n4cnc5c(N)ncnc54)[C@H](O)[C@@H]3O)[C@@H](O)[C@H]2O)C=CC1; settings: apparent; co-substrate 2′-chloroacetophenone (max 10 mM), as in the wild-type row; W23 and K24 replaced by pentapeptide FAPRE; varied: cofactor
T4 construct: full-length enzyme; redesigned CtXR expressed in E. coli BL21 (DE3), purified by dye ligand chromatography
Description: as §1

[3] = substrate: CC(=O)c1ccc(Cl)cc1Cl; settings: apparent; 300 µM NADH; incomplete substrate saturation (max 5 mM)
Description: as §1

[4] = substrate: CC(=O)c1ccccc1Cl; settings: apparent; 300 µM NADH; incomplete substrate saturation (max 10 mM)
Description: as §1

[5] = substrate: NC(=O)C1=CN([C@@H]2O[C@H](COP(=O)(O)OP(=O)(O)OC[C@H]3O[C@@H](n4cnc5c(N)ncnc54)[C@H](O)[C@@H]3O)[C@@H](O)[C@H]2O)C=CC1; settings: apparent; co-substrate 2′-chloroacetophenone (max 10 mM); varied: cofactor
Description: as §1

[6] = substrate: CCOC(=O)C(=O)c1ccc(C#N)cc1; settings: apparent; 300 µM NADH; incomplete substrate saturation (max 10 mM)
Description: as §1

Molecule | Km (CC(=O)c1ccc(Cl)cc1Cl) [mM] | kcat (CC(=O)c1ccc(Cl)cc1Cl) [s⁻¹] | Km [1] [mM] | kcat [1] [s⁻¹] | Km (CC(=O)c1ccccc1Cl) [mM] | kcat (CC(=O)c1ccccc1Cl) [s⁻¹] | kcat/Km (CC(=O)c1ccccc1Cl) [M⁻¹ s⁻¹] | Km [2] [mM] | kcat [2] [s⁻¹] | kcat/Km [2] [M⁻¹ s⁻¹] | Km [3] [mM] | kcat [3] [s⁻¹] | Km [4] [mM] | Km [5] [mM] | kcat [5] [s⁻¹] | kcat/Km [5] [M⁻¹ s⁻¹] | Km [6] [mM] | kcat [6] [s⁻¹] | kcat/Km [6] [M⁻¹ s⁻¹]
Candida tenuis xylose reductase (CtXR) (Yamadazyma tenuis; INS25PRE/K25A/W24F) | 4 ± 1 | 2.0 ± 0.4 | 4 ± 1 | 17 ± 2 | 5 ± 2 | 1.0 ± 0.2 | 370 ± 50 | 0.07 ± 0.02 | 1.0 ± 0.2 | 7600 ± 500 |  |  |  |  |  |  |  |  | 
B1 |  |  |  |  |  |  |  |  |  |  | 6 ± 2 | 2.7 ± 0.3 | 13 ± 4 | 0.11 ± 0.025 | 0.8 ± 0.1 | 8700 ± 400 | 5 ± 2 | 0.4 ± 0.06 | 100 ± 10

Source: PMC4064709, “Acceleration of an aldo-keto reductase by minimal loop engineering” (Protein Engineering, Design and Selection, 2014)
